Experiments:
Experiment in all cases: cell-based or functional assay
CCL17 = biological target: T1, CCL17 (human, UniProt Q92583 24-94)
T1 sequence: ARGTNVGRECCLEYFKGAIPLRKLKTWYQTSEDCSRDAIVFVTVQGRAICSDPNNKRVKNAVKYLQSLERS

CCL11 = CCL11 (human, UniProt P51671 24-97)
CCL26 = biological target: T2, CCL26 (human, UniProt Q9Y258 24-94)
T2 sequence: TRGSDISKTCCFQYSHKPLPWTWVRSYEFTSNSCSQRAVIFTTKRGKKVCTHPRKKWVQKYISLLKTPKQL

CCL5 (wild type) = biological target: T3, CCL5 (wild type) (human, UniProt P13501 24-91)
T3 sequence: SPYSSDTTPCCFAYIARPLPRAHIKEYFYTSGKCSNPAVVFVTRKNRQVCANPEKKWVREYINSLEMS

CCL22 = biological target: T4, CCL22 (human, UniProt O00626 25-93)
T4 sequence: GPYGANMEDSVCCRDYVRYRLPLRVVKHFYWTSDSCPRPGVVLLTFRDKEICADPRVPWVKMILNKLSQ

CCL16 = biological target: T5, CCL16 (human, UniProt O15467 24-120)
T5 sequence: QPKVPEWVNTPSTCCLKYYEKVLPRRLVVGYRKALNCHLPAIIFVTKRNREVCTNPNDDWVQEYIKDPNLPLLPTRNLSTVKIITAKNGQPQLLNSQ

CCL24 = biological target: T6, CCL24 (human, UniProt O00175 27-119)
T6 sequence: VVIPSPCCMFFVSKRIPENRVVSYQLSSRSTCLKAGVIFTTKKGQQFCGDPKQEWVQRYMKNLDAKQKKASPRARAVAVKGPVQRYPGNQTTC

CCL8 = biological target: T7, CCL8 (human, UniProt P80075 24-99)
T7 sequence: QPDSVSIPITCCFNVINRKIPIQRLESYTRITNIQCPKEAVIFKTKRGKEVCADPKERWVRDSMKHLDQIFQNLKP

CCL23 = biological target: T8, CCL23 (human, UniProt P55773)
T8 sequence: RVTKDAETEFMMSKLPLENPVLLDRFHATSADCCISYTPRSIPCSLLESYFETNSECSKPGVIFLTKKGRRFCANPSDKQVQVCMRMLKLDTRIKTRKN

CCL15 = biological target: T9, CCL15 (human, UniProt Q16663)
T9 sequence: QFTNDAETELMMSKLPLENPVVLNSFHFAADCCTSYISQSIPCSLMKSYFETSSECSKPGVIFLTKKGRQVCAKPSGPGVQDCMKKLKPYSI

CCL7 = CCL7 (human, UniProt P80098 24-99)
CCL3 = biological target: T10, CCL3 (human, UniProt P10147 24-92)
T10 sequence: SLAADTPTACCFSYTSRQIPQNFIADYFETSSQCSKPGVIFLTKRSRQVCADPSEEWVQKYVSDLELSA

CCL3L1 = biological target: T11, CCL3L1 (human, UniProt P16619 24-93)
T11 sequence: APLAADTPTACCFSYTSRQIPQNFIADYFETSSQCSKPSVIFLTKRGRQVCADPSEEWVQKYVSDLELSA

CCL11, sequence (P51671 24-97): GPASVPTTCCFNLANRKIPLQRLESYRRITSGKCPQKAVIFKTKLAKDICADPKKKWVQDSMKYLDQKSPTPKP
CCL7, sequence (P80098 24-99): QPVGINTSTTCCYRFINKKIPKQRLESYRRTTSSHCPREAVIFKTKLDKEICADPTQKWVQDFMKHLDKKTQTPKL

B1: Evasin-4 (untagged recombinant) (natural protein)
chain: EVPQMTSSSAPDLEEEDDYTAYAPLTCYFTNSTLGLLAPPNCSVLCNSTTTWFNETSPNNASCLLTVDFLTQDAILQENQPYNCSVGHCDNGTCAGPPRHAQCW
modifications: appears to be highly glycosylated (six putative N-glycosylation sites)
- IC50, inhibition of chemotaxis of L1.2/CCR4 cells to CCL17 (EC80 1 nM) (CCL17): 69 nM
- IC50, inhibition of chemotaxis of L1.2/CCR3 cells to CCL11 (EC80 1 nM) (CCL11): 14 nM
- IC50, inhibition of chemotaxis of eosinophils to CCL11 (EC80 1 nM) (CCL11): 4.9 nM
- IC50, inhibition of chemotaxis of L1.2/CCR3 cells to CCL26 (EC80 10 nM) (CCL26): 68 nM
- IC50, inhibition of chemotaxis of eosinophils to CCL26 (EC80 50 nM) (CCL26): 101 nM
- IC50, inhibition of chemotaxis of 300.19/CCR1 cells to CCL5 (EC80 1 nM) (CCL5 (wild type)): 2.2 nM
- IC50, inhibition of chemotaxis of L1.2/CCR5 cells to CCL5 (EC80 1 nM) (CCL5 (wild type)): 4.8 nM
- IC50, inhibition of chemotaxis of monocytes to CCL5 (EC80 10 nM) (CCL5 (wild type)): 1.5 nM
- IC50, inhibition of chemotaxis of L1.2/CCR4 cells to CCL22 (EC80 1 nM) (CCL22): 38 nM
- IC50, inhibition of chemotaxis of 300.19/CCR1 cells to CCL16 (EC80 250 nM) (CCL16): 304 nM
- IC50, inhibition of chemotaxis of L1.2/CCR3 cells to CCL24 (EC80 10 nM) (CCL24): 95 nM
- IC50, inhibition of chemotaxis of L1.2/CCR3 cells to CCL8 (EC80 5 nM) (CCL8): 3.6 nM
- IC50, inhibition of chemotaxis of eosinophils to CCL8 (EC80 10 nM) (CCL8): 3.1 nM
- IC50, inhibition of chemotaxis of 300.19/CCR1 cells to CCL23 (EC80 10 nM) (CCL23): 2.2 nM
- IC50, inhibition of chemotaxis of L1.2/CCR3 cells to CCL15 (EC80 100 nM) (CCL15): 88 nM
- IC50, inhibition of chemotaxis of eosinophils to CCL7 (EC80 10 nM) (CCL7): 5 nM
- IC50, inhibition of chemotaxis of 300.19CCR1 cells to CCL3 (EC80 1 nM) (CCL3): 2 nM
- IC50, inhibition of chemotaxis of L1.2/CCR5 cells to CCL3 (EC80 40 nM) (CCL3): 4.4 nM
- IC50, inhibition of chemotaxis of L1.2/CCR5 cells to CCL3L1 (EC80 1 nM) (CCL3L1): 3.5 nM
